# Results: US9345743B2, “Agent for promoting proliferation of bifidobacteria” (MORINAGA MILK INDUSTRY CO., LTD., priority 2011, dated 2016)
# What was measured:
# Assay in all cases: Bifidobacterium proliferation promoting activity, turbidity at 630 nm after 16 h anaerobic culture in MRS medium
# Type in all cases: cell-based
# Conditions in all cases: 37° C.
# [1] = test system: Bifidobacterium breve ATCC 15700
# Experimental: (§1) A 9.375 μM aqueous solution of each peptide was adjusted to pH 6.5 with an HCl aqueous solution, and subjected to filtration sterilization using a 0.22-μm membrane. Each peptide solution was diluted with dilution water to obtain 9.375 μM, 3.125 μM, 0.9375 μM, and 0.3125 μM sample solutions. As the dilution water, purified water adjusted to pH 6.5 with an HCl solution and sterilized at 115° C. for 15 minutes was used.
# (§2) Bifidobacterium proliferation promoting activities of the aforementioned peptides were evaluated as follows.
# (§3) The bifidobacteria used for the experiment were as follows. These strains can be obtained from ATCC (American Type Culture Collection, http://www.atcc.org/). • Bifidobacterium infantis ATCC 15697^T • Bifidobacterium breve ATCC 15700^T • Bifidobacterium bifidum ATCC 29521^T
# (§4) A cell suspension of each strain (100 μL) cryopreserved in a 10% skim milk medium was added to the MRS liquid medium (3 mL), and culture was performed at 37° C. for 16 hours under an anaerobic condition. The culture medium (100 μL) was added to the MRS liquid medium (3 mL). The MRS liquid medium was prepared by dissolving Difco Lactobacilli MRS Broth (5.5 g, BD, “Difco” is a registered trademark of Difco Laboratories, Incorporated), and L-cysteine monohydrochloride monohydrate (50 mg, Wako Pure Chemical Industries, Co., Ltd.) in pure water so as to obtain a final volume of 100 mL, adjusting the solution to pH 6.5 with an HCl aqueous solution, and sterilizing the solution at 115° C. for 15 minutes. Further, a concentrated medium containing the components at twofold concentrations was prepared in the same manner as described above, except that Difco Lactobacilli MRS Broth and L-cysteine monohydrochloride monohydrate were used in amounts of 11 g and 100 mg, respectively.
# (§5) The aforementioned culture medium was diluted with the MRS liquid medium so as to obtain a turbidity of 0.8 measured at a wavelength of 630 nm. This diluted culture medium was further diluted 100 times with the MRS liquid medium. The obtained diluted culture medium is referred to as 1% diluted culture medium.
# (§6) Anaerobic culture was performed at 37° C. for 16 hours in a mixture of 100 μL of the twofold concentrated culture medium, 80 μL of a sample solution or the dilution water, and 20 μL of the 1% diluted culture medium (inoculation volume was 0.1%) or the MRS liquid medium (inoculation volume was 0%) on a 96-well plate (FALCON 353072). The final concentration of the peptide in the mixture was 3.75 μM, 1.25 μM, 0.375 μM, 0.125 μM, or 0 μM.
# (§7) After the culture, turbidity of each culture medium was measured at a wavelength of 630 nm, and the proliferation promoting ratio (%) was calculated in accordance with the following equation. Proliferation promoting ratio (%)=(ODS1−ODS0)/(ODC1−ODC0)×100−100
# (§8) ODS1: Turbidity observed after culture performed at a sample concentration of 3.75 to 0.125 μM and inoculation volume of 0.1% for 16 hours
# (§9) ODS0: Turbidity observed after culture performed at a sample concentration of 3.75 to 0.125 μM and inoculation volume of 0% for 16 hours
# (§10) ODC0: Turbidity observed after culture performed at a sample concentration of 0 μM and inoculation volume of 0% for 16 hours
# (§11) Bifidobacterium proliferation promoting activities of the aforementioned peptides were evaluated in the same manner as that of Example 1.
# [2] = test system: Bifidobacterium infantis ATCC 15697
# Experimental: as §1, §2, §3, §4, §5, §6, §7, §8, §9, §10, §11
# [3] = test system: Bifidobacterium bifidum ATCC 29521
# Experimental: as §1, §2, §3, §4, §5, §6, §7, §8, §9, §10, §11
molecule,measurement,setting,value
"bovine lactoferrin (protein, UniProt P24627 20-708, looked up) Lactotransferrin: APRKNVRWCTISQPEWFKCRRWQWRMKKLGAPSITCVRRAFALECIRAIAEKKADAVTLDGGMVFEAGRDPYKLRPVAAEIYGTKESPQTHYYAVAVVKKGSNFQLDQLQGRKSCHTGLGRSAGWIIPMGILRPYLSWTESLEPLQGAVAKFFSASCVPCIDRQAYPNLCQLCKGEGENQCACSSREPYFGYSGAFKCLQDGAGDVAFVKETTVFENLPEKADRDQYELLCLNNSRAPVDAFKECHLAQVPSHAVVARSVDGKEDLIWKLLSKAQEKFGKNKSRSFQLFGSPPGQRDLLFKDSALGFLRIPSKVDSALYLGSRYLTTLKNLRETAEEVKARYTRVVWCAVGPEEQKKCQQWSQQSGQNVTCATASTTDDCIVLVLKGEADALNLDGGYIYTAGKCGLVPVLAENRKSSKHSSLDCVLRPTEGYLAVAVVKKANEGLTWNSLKDKKSCHTAVDRTAGWNIPMGLIVNQTGSCAFDEFFSQSCAPGADPKSRLCALCAGDDQGLDKCVPNSKEKYYGYTGAFRCLAEDVGDVAFVKNDTVWENTNGESTADWAKNLNREDFRLLCLDGTRKPVTEAQSCHLAVAPNHAVVSRSDRAAHVKQVLLHQQALFGKNGKNCPDKFCLFKSETKNLLFNDNTECLAKLGGRPTYEEYLGTEYVTAIANLKKCSTSPLLEACAFLTR",Proliferation promoting ratio (%),"[1]; B. breve ATCC 15700, 0.125 μM",2%
same,Proliferation promoting ratio (%),"[1]; B. breve ATCC 15700, 0.375 μM",4%
same,Proliferation promoting ratio (%),"[1]; B. breve ATCC 15700, 1.25 μM",8%
same,Proliferation promoting ratio (%),"[1]; B. breve ATCC 15700, 3.75 μM",21%
same,Proliferation promoting ratio (%),"[2]; B. infantis ATCC 15697, 0.125 μM",1%
same,Proliferation promoting ratio (%),"[2]; B. infantis ATCC 15697, 0.375 μM",1%
same,Proliferation promoting ratio (%),"[2]; B. infantis ATCC 15697, 1.25 μM",13%
same,Proliferation promoting ratio (%),"[2]; B. infantis ATCC 15697, 3.75 μM",23%
same,Proliferation promoting ratio (%),"[3]; B. bifidum ATCC 29521, 0.125 μM",8%
same,Proliferation promoting ratio (%),"[3]; B. bifidum ATCC 29521, 0.375 μM",8%
same,Proliferation promoting ratio (%),"[3]; B. bifidum ATCC 29521, 1.25 μM",10%
same,Proliferation promoting ratio (%),"[3]; B. bifidum ATCC 29521, 3.75 μM",12%
